{
  "source": "paper PMC10929410",
  "molecules": {"B1": {"name": "native FlaB (flagellin type B, glycosylated) of Pseudomonas aeruginosa strain PAO1 (natural protein)", "chain": "MALTVNTNIASLNTQRNLNASSNDLNTSLQRLTTGYRINSAKDDAAGLQISNRLSNQISGLNVATRNANDGISLAQTAEGALQQSTNILQRIRDLALQSANGSNSDADRAALQKEVAAQQAELTRISDTTTFGGRKLLDGSFGTTSFQVGSNAYETIDISLQNASASAIGSYQVGSNGAGTVASVAGTATASGIASGTVNLVGGGQVKNIAIAAGDSAKAIAEKMDGAIPNLSARARTVFTADVSGVTGGSLNFDVTVGSNTVSLAGVTSTQDLADQLNSNSSKLGITASINDKGVLTITSATGENVKFGAQTGTATAGQVAVKVQGSDGKFEAAAKNVVAAGTAATTTIVTGYVQLNSPTAYSVSGTGTQASQVFGNASAAQKSSVASVDISTADGAQNAIAVVDNALAAIDAQRADLGAVQNRFKNTIDNLTNISENATNARSRIKDTDFAAETAALSKNQVLQQAGTAILAQANQLPQAVLSLLR", "modifications": "simple O-glycan without rhamnose, attached via deoxyhexosamine"}, "B2": {"name": "recombinant FlaB (non-glycosylated) (natural protein)", "chain": "B1 chain"}, "B3": {"name": "deglycosylated native FlaB (natural protein)", "chain": "B1 chain", "modifications": "treated with trifluoromethanesulfonic acid to remove the O-glycans"}},
  "target": "human Toll-like receptor 5 on HEK-Blue-hTLR5 reporter cells (human) (UniProt O60602)",
  "sequence (O60602 21-858)": "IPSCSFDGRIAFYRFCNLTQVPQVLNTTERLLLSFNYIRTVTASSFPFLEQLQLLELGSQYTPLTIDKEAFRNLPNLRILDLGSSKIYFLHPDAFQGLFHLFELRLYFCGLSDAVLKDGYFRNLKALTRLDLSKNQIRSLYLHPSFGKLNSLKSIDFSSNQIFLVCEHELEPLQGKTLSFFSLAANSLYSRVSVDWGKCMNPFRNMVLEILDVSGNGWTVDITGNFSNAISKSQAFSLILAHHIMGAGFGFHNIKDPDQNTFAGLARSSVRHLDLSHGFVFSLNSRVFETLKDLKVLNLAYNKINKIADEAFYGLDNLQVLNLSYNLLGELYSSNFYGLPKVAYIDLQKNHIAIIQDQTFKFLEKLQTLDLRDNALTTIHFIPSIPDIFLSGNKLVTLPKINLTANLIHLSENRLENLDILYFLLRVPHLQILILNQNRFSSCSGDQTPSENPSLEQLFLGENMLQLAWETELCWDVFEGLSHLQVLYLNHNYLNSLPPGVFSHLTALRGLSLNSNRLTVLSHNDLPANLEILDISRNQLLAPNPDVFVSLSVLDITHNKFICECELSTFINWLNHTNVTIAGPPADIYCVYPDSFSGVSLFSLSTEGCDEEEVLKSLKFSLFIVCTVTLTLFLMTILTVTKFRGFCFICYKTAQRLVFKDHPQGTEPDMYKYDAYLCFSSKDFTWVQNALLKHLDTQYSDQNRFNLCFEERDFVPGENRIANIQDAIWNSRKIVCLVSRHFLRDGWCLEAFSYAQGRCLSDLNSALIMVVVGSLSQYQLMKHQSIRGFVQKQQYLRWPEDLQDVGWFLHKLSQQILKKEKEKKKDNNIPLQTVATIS",
  "data": [
    {"molecule": "recombinant FlaA (non-glycosylated) (from UniProt P21184 1-394) (natural protein)", "values": [
      {"measurement": "EC50 of TLR5 activation (SEAP, OD 620 nm) in HEK-Blue-hTLR5 reporter cells, 10 pg/mL to 10 µg/mL, 24 h", "result": 0.0415, "unit": "µg/mL"}
    ]},
    {"molecule": "deglycosylated native FlaA (from UniProt P21184 1-394) (natural protein)", "values": [
      {"measurement": "EC50 of TLR5 activation (SEAP, OD 620 nm) in HEK-Blue-hTLR5 reporter cells, 10 pg/mL to 10 µg/mL, 24 h", "result": 0.291, "unit": "µg/mL"}
    ]},
    {"molecule": "native FlaA (flagellin type A, glycosylated) of Pseudomonas aeruginosa strain PAK (from UniProt P21184 1-394) (natural protein)", "values": [
      {"measurement": "EC50 of TLR5 activation (SEAP, OD 620 nm) in HEK-Blue-hTLR5 reporter cells, 10 pg/mL to 10 µg/mL, 24 h", "result": 0.0021, "unit": "µg/mL"}
    ]},
    {"molecule": "B1", "values": [
      {"measurement": "EC50 of TLR5 activation (SEAP, OD 620 nm) in HEK-Blue-hTLR5 reporter cells, 10 pg/mL to 10 µg/mL, 24 h", "result": 0.0444, "unit": "µg/mL"}
    ]},
    {"molecule": "B2", "values": [
      {"measurement": "EC50 of TLR5 activation (SEAP, OD 620 nm) in HEK-Blue-hTLR5 reporter cells, 10 pg/mL to 10 µg/mL, 24 h", "result": 104}
    ]},
    {"molecule": "B3", "values": [
      {"measurement": "EC50 of TLR5 activation (SEAP, OD 620 nm) in HEK-Blue-hTLR5 reporter cells, 10 pg/mL to 10 µg/mL, 24 h; the sentence prints the label dnFlaA, taken as dnFlaB from the context of Fig. 4D", "result": 0.442, "unit": "µg/mL"}
    ]}
  ]
}
